Data on one substance can be found in patent US20070026478A1, “Hemiasterlin affinity probes and their uses” (WYETH, priority 2002, published 2007).

Assay [1] addresses microtubule associated protein (MAP)-rich bovine brain tubulin (bovine) (UniProt P81947). In words: 100 µM HTI-286 against 0.25 µM [3H]-Probe 1 photolabeling of tubulin, room temperature.
The target is the same in assay [2]. The experiment in a line: 100 µM HTI-286 against 0.25 µM [3H]-Probe 1 photolabeling of tubulin, 37° C.
Assay [3] shares this target. In words: reversible binding to bovine brain tubulin (range given in Table 1).
Assay [4] shares this target. The experiment in a line: 100 µM HTI-286 against 0.25 µM [3H]-Probe 2 photolabeling of tubulin, room temperature.
Assay [5] deals with α-tubulin of bovine brain tubulin (bovine) (UniProt P81947). The experiment in a line: 1 mM HTI-286 against 2.5 µM [3H]-Probe 1 photolabeling, fluorography.
Assay [6] deals with microtubule associated protein (MAP)-rich bovine brain tubulin (bovine) (UniProt P81947).

The term Kd denotes the free concentration of one partner at which half of the binding sites on the other are occupied at equilibrium, for simple one-to-one binding.

Where “and” joins values, the source holds several entries; their conditions need not be identical. Equal values may be shown once.

For “HTI-286 (N,β,β-trimethyl-L-phenylalanyl-N1-[(1S,2E)-3-carboxy-1-isopropylbut-2-enyl]-N1,3-dimethyl-L-valinamide trifluoroacetate) (peptide)”, the Inhibition (%) (labeling against control = 100) in assay [1] is 27%; in assay [2], 47%. The Kd in assay [3] was 400 nM and 800 nM. The percent inhibition of Probe 2 labeling (so in the source) in assay [4] was 45%. The same substance registered a percent inhibition of Probe 1 incorporation in assay [5] of over 50%. In addition, in assay [6], the tubulin polymerization (% inhibition) was 87.5%.
